Data set [1] relates to E6N2 (anti-EGFR Fn3 clone E6 - mouse IgG2a Fc - PKR dsRBD) C121V,C135V (Homo sapiens). The data set can be described thus: flow.
In data set [2] the target is epidermal growth factor receptor (EGFR) on human cancer cell lines (human, UniProt P00533 25-1210).

Turning to “AllStars Negative Control siRNA, Alexa 488 labeled”, in data set [1], the Kd (commonly the equilibrium constant for the complex coming apart) came out at 3.5 nM and the binding signal was above 100 fold.

B1: E6N2 (Fc fusion)
chain: VSDVPRDLEVVAATPTSLLISWFDYAVTYYRITYGETGGNSPVQEFTVPGWISTATISGLKPGVDYTITVYAVTDNSRWPFRSTPISINYRTEIDKPSQ
In data set [2], B1 registered a Kd of around 2.1 nM.

For the origin of these results see patent US20150174265A1 (MIT, published 2015).
